Source: PMC2094074 (Nucleic Acids Research, 2007)

B1: GST-hTDG-N(1-124) (domain or fragment, human, UniProt Q13569 1-124, looked up)
chain: MEAENAGSYSLQQAQAFYTFPFQQLMAEAPNMAVVNEQQMPEEVPAPAPAQEPVQEAPKGRKRKPRTTEPKQPVEPKKPVESKKSGKSAKSKEKQEKITDTFKVKRKVDRFNGVSEAELLTKTL
B2: His-tagged hTDG(67-308) (domain or fragment, human, UniProt Q13569 67-308, looked up)
chain: TTEPKQPVEPKKPVESKKSGKSAKSKEKQEKITDTFKVKRKVDRFNGVSEAELLTKTLPDILTFNLDIVIIGINPGLMAAYKGHHYPGPGNHFWKCLFMSGLSEVQLNHMDDHTLPGKYGIGFTNMVERTTPGSKDLSSKEFREGGRILVQKLQKYQPRIAVFNGKCIYEIFSKEVFGVKVKNLEFGLQPHKIPDTETLCYVMPSSSARCAQFPRAQDKVHYYIKLKDLRDQLKGIERNMDV
B3: His-tagged hTDG-ΔC1(1-308) (domain or fragment, human, UniProt Q13569 1-308, looked up)
chain: MEAENAGSYSLQQAQAFYTFPFQQLMAEAPNMAVVNEQQMPEEVPAPAPAQEPVQEAPKGRKRKPRTTEPKQPVEPKKPVESKKSGKSAKSKEKQEKITDTFKVKRKVDRFNGVSEAELLTKTLPDILTFNLDIVIIGINPGLMAAYKGHHYPGPGNHFWKCLFMSGLSEVQLNHMDDHTLPGKYGIGFTNMVERTTPGSKDLSSKEFREGGRILVQKLQKYQPRIAVFNGKCIYEIFSKEVFGVKVKNLEFGLQPHKIPDTETLCYVMPSSSARCAQFPRAQDKVHYYIKLKDLRDQLKGIERNMDV
B4: His-tagged hHus1 expressed in E. coli (natural protein, human, UniProt O60921 1-280, looked up)
chain: MKFRAKIVDGACLNHFTRISNMIAKLAKTCTLRISPDKLNFILCDKLANGGVSMWCELEQENFFNEFQMEGVSAENNEIYLELTSENLSRALKTAQNARALKIKLTNKHFPCLTVSVELLSMSSSSRIVTHDIPIKVIPRKLWKDLQEPVVPDPDVSIYLPVLKTMKSVVEKMKNISNHLVIEANLDGELNLKIETELVCVTTHFKDLGNPPLASESTHEDRNVEHMAEVHIDIRKLLQFLAGQQVNPTKALCNIVNNKMVHFDLLHEDVSLQYFIPALS
B5: GST-hHus1 (natural protein, human, UniProt O60921 1-280, looked up)
chain: B4 chain
B6: GST-hRad1 (natural protein, human, UniProt O60671 1-282, looked up)
chain: MPLLTQQIQDEDDQYSLVASLDNVRNLSTILKAIHFREHATCFATKNGIKVTVENAKCVQANAFIQAGIFQEFKVQEESVTFRINLTVLLDCLSIFGSSPMPGTLTALRMCYQGYGYPLMLFLEEGGVVTVCKINTQEPEETLDFDFCSTNVINKIILQSEGLREAFSELDMTSEVLQITMSPDKPYFRLSTFGNAGSSHLDYPKDSDLMEAFHCNQTQVNRYKISLLKPSTKALVLSCKVSIRTDNRGFLSLQYMIRNEDGQICFVEYYCCPDEEVPESES
B7: GST-hRad9 (natural protein, human, UniProt Q99638 1-391, looked up)
chain: MKCLVTGGNVKVLGKAVHSLSRIGDELYLEPLEDGLSLRTVNSSRSAYACFLFAPLFFQQYQAATPGQDLLRCKILMKSFLSVFRSLAMLEKTVEKCCISLNGRSSRLVVQLHCKFGVRKTHNLSFQDCESLQAVFDPASCPHMLRAPARVLGEAVLPFSPALAEVTLGIGRGRRVILRSYHEEEADSTAKAMVTEMCLGEEDFQQLQAQEGVAITFCLKEFRGLLSFAESANLNLSIHFDAPGRPAIFTIKDSLLDGHFVLATLSDTDSHSQDLGSPERHQPVPQLQAHSTPHPDDFANDDIDSYMIAMETTIGNEGSRVLPSISLSPGPQPPKSPGPHSEEEDEAEPSTVPGTPPPKKFRSLFFGSILAPVRSPQGPSPVLAEDSEGEG

Assays:
Test in all cases: pull-down
[1] = target: B4
GST-hRad9 = target: B7
GST-hRad1 = target: B6
GST-hTDG (full length) = GST-hTDG (full length) (human, UniProt Q13569 1-410)
[2] = target: B3
[3] = target: His-tagged human thymine DNA glycosylase, full length (hTDG-full, residues 1-410) (human, UniProt Q13569 1-410)

Binder: B1
binding result [1]: binds

Binder: B2
binding result (GST-hRad9): binds
binding result (GST-hRad1): binds

Binder: B3
binding result (GST-hRad9): binds

Binder: B4
binding result (GST-hTDG (full length)): binds

Binder: B5
binding result [2]: binds

Binder: B6
binding result [3]: binds
binding result [2]: binds

Binder: B7
binding result [3]: binds
